Experimental findings from the nanobody polyreactivity screen of Harvey et al. (2022) are described below.

This data set in a line: yeast display, Sf9 membrane polyspecificity reagent, FACS + sequencing; frameworks hold sequencing errors. In outline:
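Nanobodies from a synthetic yeast display library (Saccharomyces cerevisiae BJ5465), induced 36–48 hours with galactose, were stained 1 hour at 4 °C with 10% biotinylated, detergent-solubilized Sf9 membrane reagent, enriched on streptavidin microbeads, then FACS-sorted. Anti-HA (expression) and streptavidin (reagent binding) fluorescence set low and high (top ~1%) gates. Polyreactivity labels come from the gate of origin. Genes were colony-PCR amplified, MiSeq 2 × 250 sequenced and filtered by CDR length.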
Consider “QVQLVESGGGLVQAGGSLRLSCAASGSIFTYNTMGWYRQAPGKERELVATISWSGGRTYYADSVKGRFTISRDNAKNTVYLQMNSLKPEDTAVYYCAAGYYYGYPPRDYWGQGSQVTVSS”, for which the “polyreactivity (PSR sort gate)” value is listed as “high polyreactivity”.
The result for “QVQLVESGGGLVQAGGSLRLSCAASGSIFTYYAMGWYRPAPGKERELVAAISSDGSTTYADSVKGRFTISRDNAKNTVYLQMNSLKPEDTAVYYCAASQFYFYYSPDGYDFWGQGTQVTVSS” reads “low polyreactivity”.
With “QVQLVESGGGLVQAGGSLRLSCAASGSIFTYYAMGWYRQAPGKEMELVAAISWSGGSTYYADSVKGRFTISRDNAKNTVYLQLNSLKPEDTAVYYCAKRYRKGRAYPGYEYWGQGTQVTVSS” the entry was “low polyreactivity”.
Consider “QVQLVESGGGLVQAGGSLRLSCAASGSIFTYYAMGWYRQAPGKERELVAAISASGGSTYYADSVKGRFTISRDNAKNTVYLQMNSLKPEDTAVYYCAADYRRSGGGNLPYDNDYWGQVTQVTVSS”, for which the “polyreactivity (PSR sort gate)” value is reported as “high polyreactivity”.
“QVQLVESGGGLVQAGGSLRLSCAASGSIFTYYAMGWYRQAPGKERELVAAISRRGGSTYYAVSVKGRFTISRDNAKNTVYLQMNSLKPEDTAVYYCNKVAYPRYYTGVNEFDYWGQGTQVTVSS”: the “polyreactivity (PSR sort gate)” value is on record as “high polyreactivity”.
The result for “QVQLVESGGGLVQAGGSLRLSCAASGSIFVANAMGWYRQAPGKERELVAAISASGVTTYYADSVKGRFTISRDNAKNTVYLQMNSLKPEDTAVYYCNADYGSDDDVVRYDYWGQGTQVTVSS” reads “low polyreactivity”; that for “QVQLVESGGGLVQAGGSLRLSCAASGSIFVANAMGWYRQAPGKERELVAAISVRGGRTYYADSVKGRFTISRDNAKNTVYLQMNSLKPEDTAVYYCARVLRSDVADYDYWGQGTQVTVSS”, “high polyreactivity”.
With “QVQLVESGGGLVQAGGSLRLSCAASGSIFVDYAMGWSRQAPGKERELVAAITSGGRTNYADSVKGRFTISRDNAKNTVYLQMNSLKPEDTAVYYCNKTRYTNYYTTTFDYWGQGTQVTVSS” the entry was “low polyreactivity”.
On to “QVQLVESGGGLVQAGGSLRLSCAASGSIFVDYAMGWYRQAPGKEMELVAAISSGGGSTYYADSVKGRFTISRDNAKNTVYLQMNSLKPEDTAVYYCAASVYGQHAGPGRWYTFYYWGQGTQVTVSS”, for which the “polyreactivity (PSR sort gate)” value is listed as “low polyreactivity”.
The result for “QVQLVESGGGLVQAGGSLRLSCAASGSIFVENAMGWYRQAPGKERELVAAISSDASTNYADSVKGRFTISRDNAKNTVYLQMNSLKPEDTAVYSCAAGYNPHGQYDYWGQGTQVTVSS” reads “low polyreactivity”; that for “QVQLVESGGGLVQAGGSLRLSCAASGSIFVEYAMGWYRQAPGKERELVSAIRWRGGSTNYADSVKGRFTISRDTAKNTVYLQMNSLNREDTAVYYCNARHPASGDLYRMDYWGQGTQVTVSS”, “low polyreactivity”; that for “QVQLVESGGGLVQAGGSLRLSCAASGSIFVGNAMGWYRQAPGKERELVAAINSGGSTNYADSVKGRFTISRDNAKNTVYLQMNSLKTEDTAVYYCAADDDYCRILQGDQSDDYWGQGTQVTVSS”, “low polyreactivity”.
The result for “QVQLVESGGGLVQAGGSLRLSCAASGSIFVGTAMGWYRQAPGKERELVADINSGGSTNYADSVKGRVTISRDNAKNTVYLQMNSLKPEDTAVSYCAKSAVSGTYDYWGQGTQVTVSS” reads “low polyreactivity”.
With “QVQLVESGGGLVQAGGSLRLSCAASGSIFVGYAMGWYRLAPGKERELVASITNGDSTNYADSVKGRFTISRDNAKNTVYLQMNSLKPEDTAVYYCAADYYSFHPSGWYGYEYWGQGTQVTVSS” the entry was “low polyreactivity”.
Consider “QVQLVESGGGLVQAGGSLRLSCAASGSIFVGYAMGWYRQAPGKERELVAAISKSGGSTYYADSVKGRFTISRDNAKNTDYLQMNSLKPEDTAVYYCATRTHRRGNYLSITHEYWGQGTQVTVSS”, for which the “polyreactivity (PSR sort gate)” value is listed as “high polyreactivity”.
In the case of “QVQLVESGGGLVQAGGSLRLSCAASGSIFVGYAMGWYRQAPGKEREWVAAIRSGGSTKYADSVKGRFTISRDNAKNTVYLQMNSLKPEDTAVYYCNVEVHPYYWVDNFQRFPVLHNYWGQGTQVTVSS”, the “polyreactivity (PSR sort gate)” value is listed as “low polyreactivity”.
The result for “QVQLVESGGGLVQAGGSLRLSCAASGSIFVGYDMGWYRQAPGKERELVAAISWRGVGTYYADSVKGRCTISRDNAKNTVYLQMNSLKPEDTAVYYCAARWTVPRDSAPSKGYDYWGQGTQVTVSS” reads “low polyreactivity”; that for “QVQLVESGGGLVQAGGSLRLSCAASGSIFVHNAMGWYRQAPGKERELVAAITWSGGSTYYADSVKGRFTISRDNAKNTVYLQMNSLKPEDTAVYYCNATYSVRYYLEFLNEPEMDYWGQGTQVTVSS”, “low polyreactivity”.
With “QVQLVESGGGLVQAGGSLRLSCAASGSIFVINAMGWYRQAPGKERELVAAIDWSGDSTYYADSVKVRFTISRDNAKNTVYLEMNSLKPEDTAVYYCAADLDSRGTYGRYEYWGQGTQVTVSS” the entry was “low polyreactivity”; with “QVQLVESGGGLVQAGGSLRLSCAASGSIFVIYAMGWYRQAPGKERELVAAISRSGGRTYYADSVKGRFTISRDNAKTTVYLQMNSLKPEDTAVYYCAAEGSTYQGAPGVYYWGQGTQVTVSS”, “high polyreactivity”.
With “QVQLVESGGGLVQAGGSLRLSCAASGSIFVIYAMGWYRQAPGKERELVATISGGGGTNYADSVKGRFTISRDNAKNTVYLQMNSLNPEDTAVYYCAARSKVHRWRKRYDYWGQGTQVTVSS”, the “polyreactivity (PSR sort gate)” value is “high polyreactivity”.
The result for “QVQLVESGGGLVQAGGSLRLSCAASGSIFVKNAMGWYRQAPGKEREFVAAITTSGGSTNYADSVKGRFTISLDNAKNTVYLQMNSLKPEDTAVYYCNTDIFPAAYDYWGQGTQVTVSS” reads “low polyreactivity”; that for “QVQLVESGGGLVQAGGSLRLSCAASGSIFVKNAMGWYRQAPGKERELVARITYSGGSTYYADSVKGRFTISRDNAKNTVYLQMNSLKPEDTAVYYCAARYWYFPQTYYPGNDYWGQGTQVTVSS”, “high polyreactivity”; that for “QVQLVESGGGLVQAGGSLRLSCAASGSIFVLNAMGWYRPAPGKDRELVAAITNVGSTYYADSVKGRFTISRDNAKNTVYLQMNSRKPEDTAVYYCNADPAEVLVGYDYWGQGTQVTVSS”, “low polyreactivity”.
The result for “QVQLVESGGGLVQAGGSLRLSCAASGSIFVLNAMGWYRQAPGKERELVAAITNVGSTYYADSVKGRFTISRDNAKNTVYLQMNSLKPEDTAVYYCVAKGHLYSGGYEYYYWGQGTQVTVSS” reads “low polyreactivity”; that for “QVQLVESGGGLVQAGGSLRLSCAASGSIFVLYAMGWYRQAPGKEREFVAAISWSGDSTYYADSVKGRFTISRDNAKNTVFLQMNSLKPEDTAVYYCAVYGYRTKYGYWGQGTQVTVSS”, “high polyreactivity”; that for “QVQLVESGGGLVQAGGSLRLSCAASGSIFVNYAMGWYRQAPGKERELVAAITSRGTRTYYADSVKGRFTISRDNAKNTVYLQMNSLKPEDTAVYYCAAKQVSRGVAAYDYWGQGTQVTVSS”, “high polyreactivity”.
“QVQLVESGGGLVQAGGSLRLSCAASGSIFVPNAMGWYRQAPGNERELVADLTRRGGSTYYADSVKGRFTISRDNAKNTVYLQMNSLKPEDTAVYYCNATYLTRSTRLSDFDYWGQGTQVTVSS”: the “polyreactivity (PSR sort gate)” value is recorded as “high polyreactivity”.
With “QVQLVESGGGLVQAGGSLRLSCAASGSIFVPNTMGWYRQAPGKERELVAAIRFSSGRTYYADSVKGRFTISRDNAKNTVYLQMNSLKPEVTAVYYCAADPRYSSGITYTRFYYWGQGTQVTVSS” the entry was “high polyreactivity”; with “QVQLVESGGGLVQAGGSLRLSCAASGSIFVPYAMGWYRQAPGKERELVAAINHGGGRTYADSVKGRFTISRDNAKNTVYLQMNSLKPEDTAVYYCAADGAHKFGYYRYYYWGQGTQVTVSS”, “low polyreactivity”.
The result for “QVQLVESGGGLVQAGGSLRLSCAASGSIFVPYAMGWYRQAPGKERELVAAISNGDSTYYADSVKGRFTISRDNAKNTVYLQMNSLKPEDTAVYYCATRGIPDDNARDYWGQGTQVTVSS” reads “low polyreactivity”; that for “QVQLVESGGGLVQAGGSLRLSCAASGSIFVPYAMGWYRQAPGKERELVAAITWSGSSTYYADSVKGRFTISRDNAKNTVYLQMNSLKPEDTAVYYCAADYFDWEGNGYYYWGQGTQVTVSS”, “high polyreactivity”; that for “QVQLVESGGGLVQAGGSLRLSCAASGSIFVQNAMGWYRQAPGTERELVAVINSGDSTNYADSVKGRFTISRDNAKNTVDLQMNSLKPEDTAVYYCAVDDVSYYYLRAYNYELSWYCSGLDYWGQGTQVTVSS”, “low polyreactivity”.
With “QVQLVESGGGLVQAGGSLRLSCAASGSIFVQYAMGWYRQAPGKERELVAAISRGGGRTYYADSVKGRFTISRDNANNTVYLQMNSLKPEDTAVYYCAADSRPRDDYWGQGTQVTVSS” the entry was “high polyreactivity”; with “QVQLVESGGGLVQAGGSLRLSCAASGSIFVRNAMGWYRQAPGKERELVAAITATGGRTYYADSVKGRFTISRDNAKNTVYLQMNSLKPEDTAVYYCAAYYPRSGYDYWGQGTQVTVSS”, “high polyreactivity”; with “QVQLVESGGGLVQAGGSLRLSCAASGSIFVRNGMGWYIQAPGKERELVASITSGTITYYADSVKGRFTISRDNAKNTVYLQMNSLKPEDTAVYYCAARRDRGRVKFYYWGQGTQVTVSS”, “high polyreactivity”.
On to “QVQLVESGGGLVQAGGSLRLSCAASGSIFVRNGMGWYRQAPGKERELVASITSGTITYYADSVKGRFTISRDNAKNTVYLQINSLKPEDTAVYYCNAGCRSSRFKRPYFRERNYWGQGTQVTVSS”, for which the “polyreactivity (PSR sort gate)” value is listed as “high polyreactivity”.
With “QVQLVESGGGLVQAGGSLRLSCAASGSIFVRYAMGWYRQAPGKERQLVASIRSRGDSTYYADSVKGRFTISRDNAKNTVYLQMNSLKPEETAVYYCAARRYPPRMDYWGQGTQVTVSS” the entry was “high polyreactivity”.
With “QVQLVESGGGLVQAGGSLRLSCAASGSIFVRYTMAWYRQAPGKERELVAAISWGGGSTYYADSVKGRFTISRDNAKYTVYLQMNSLKPEDTAVYFCNKRYIQLYDYWGQGTQVTVSS” the entry was “low polyreactivity”; with “QVQLVESGGGLVQAGGSLRLSCAASGSIFVSEYVMGLSRPAPGKERELVARIRWSSGSTYYADSVKGRFTISRDNAKNTVYLQIYSLKPEDTAVYYCNKDYYYVIGWTYHRSYHYDYWGQGTQVTVSS”, “low polyreactivity”.
